Like-named read-outs stand apart in the source and are kept apart here.
How the values were obtained:
Assay in all cases: MST
[1] = target: NanoTemper RED-labeled FVIIa (FVIIa-R) (human) (UniProt P08709)
[2] = target: NanoTemper RED-labeled FVIIa (FVIIa-R) (human) (UniProt P08709); remark: listed apart in the source
[3] = target: NanoTemper RED-labeled FVIIa (FVIIa-R) (human) (UniProt P08709); remark: listed apart in the source
[4] = target: NanoTemper RED-labeled FVIIa (FVIIa-R) (human) (UniProt P08709); remark: listed apart in the source
[5] = target: NanoTemper RED-labeled FVIIa (FVIIa-R) (human) (UniProt P08709); remark: listed apart in the source
[6] = target: NanoTemper RED-labeled FVIIa (FVIIa-R) (human) (UniProt P08709); remark: listed apart in the source
[7] = target: NanoTemper RED-labeled FVIIa (FVIIa-R) (human) (UniProt P08709); remark: listed apart in the source
[8] = target: NanoTemper RED-labeled FVIIa (FVIIa-R) (human) (UniProt P08709); remark: listed apart in the source
[9] = target: NanoTemper RED-labeled FVIIa (FVIIa-R) (human) (UniProt P08709); remark: listed apart in the source
[10] = target: NanoTemper RED-labeled FVIIa (FVIIa-R) (human) (UniProt P08709); remark: listed apart in the source
[11] = target: NanoTemper RED-labeled FVIIa (FVIIa-R) (human) (UniProt P08709); remark: listed apart in the source
[12] = target: NanoTemper RED-labeled FVIIa (FVIIa-R) (human) (UniProt P08709); remark: listed apart in the source
[13] = target: NanoTemper RED-labeled FVIIa (FVIIa-R) (human) (UniProt P08709); remark: listed apart in the source

UniProt P08709, sequence (P08709 61-212, chain 1 of 2): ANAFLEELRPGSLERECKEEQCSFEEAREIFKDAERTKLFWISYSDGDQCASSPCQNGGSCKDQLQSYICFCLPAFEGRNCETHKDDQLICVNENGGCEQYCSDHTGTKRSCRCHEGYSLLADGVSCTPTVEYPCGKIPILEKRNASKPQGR
UniProt P08709, sequence (P08709 213-466, chain 2 of 2): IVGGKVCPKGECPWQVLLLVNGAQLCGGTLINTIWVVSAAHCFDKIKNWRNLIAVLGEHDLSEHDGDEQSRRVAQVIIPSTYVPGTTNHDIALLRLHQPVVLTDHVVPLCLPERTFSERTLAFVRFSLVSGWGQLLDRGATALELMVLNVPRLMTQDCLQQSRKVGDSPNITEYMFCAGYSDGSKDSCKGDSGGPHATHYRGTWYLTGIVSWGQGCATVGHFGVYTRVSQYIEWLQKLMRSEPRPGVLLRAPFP

gCΔ457t (soluble recombinant HSV1 glycoprotein C) (from UniProt P10228 25-511) (domain or fragment)
Kd [1]: 0.4 µM
Kd [2]: 0.6 µM
Kd [3]: 0.9 µM
Kd [4]: 0.8 µM
Kd [5]: 2.7 µM
Kd [6]: 2.2 µM
Kd [7]: > 12 µM
Kd [8]: 1.6 µM
Kd [9]: 2.9 µM
Kd [10]: > 13 µM
Kd [11]: 2 µM
Kd [12]: 1.3 µM
Kd [13]: 1 µM

Reference: paper PMC7647453
